B1: Hu3A5 (V11) antibody (antibody, V domains shown)
VH: EVQLVQSGSELKKPGASVKVSCKASGYTFTSYWMHWMRQAPGQGLEWIGVIDPSDSYTSYNQGFTGRFVLSVDTSVSTAYLQISSLKAEDTAVYYCARGGKRAMDYWGQGTTVTVSS
VL: DVVMTQSPDSLAVSLGERATINCKSSQSLVHSNGNTYLHWYQQKPGQPPKLLIYKVSNRFSGVPDRFSGSGSGTDFTLTISSLQAEDVAVYFCSQSTHVPFTFGGGTKLEIK
notes: Humanized 3A5
B2: Hu3A5 (V12) antibody (antibody, V domains shown)
VH: B1 VH
VL: B1 VL with F92Y
notes: Humanized 3A5
B3: Hu3A5 (V16) antibody (antibody, V domains shown)
VH: B1 VH with E1Q, H35N, M37V, I48M, L70F
VL: B1 VL with F92Y
notes: Humanized 3A5
B4: Hu3A5 (V15) antibody (antibody, V domains shown)
VH: B1 VH with E1Q, H35N, M37V, I48M, L70F
VL: B1 VL
notes: Humanized 3A5
B5: Hu3A5 (V1) antibody (antibody, V domains shown)
VH: EVQLVQSGAEVKKPGASVKVSCKASGYTFTSYWMHWMRQAPGQGLEWIGVIDPSDSYTSYNQKFQGRVTLTVDTSTSTAYMELSSLRSEDTAVYYCARGGKRAMDYWGQGTTVTVSS
VL: DVVMTQSPLSLPVTLGQPASISCRSSQSLVHSNGNTYLHWFQQRPGQSPRLLIYKVSNRFSGVPDRFSGSGSGTDFTLKISRVEAEDVGVYFCSQSTHVPFTFGGGTKLEIK
notes: Humanized 3A5
B6: Hu3A5 (V3) antibody (antibody, V domains shown)
VH: B5 VH
VL: B1 VL
notes: Humanized 3A5
B7: Hu3A5 (V9) antibody (antibody, V domains shown)
VH: B1 VH
VL: B5 VL
notes: Humanized 3A5
B8: Hu3A5 (V14) antibody (antibody, V domains shown)
VH: B1 VH with E1Q, H35N, M37V, I48M, L70F
VL: B5 VL with F92Y
notes: Humanized 3A5
B9: Hu3A5 (V5) antibody (antibody, V domains shown)
VH: B5 VH with E1Q, M37V, I48M, L70M
VL: B5 VL
notes: Humanized 3A5
B10: Hu3A5 (V4) antibody (antibody, V domains shown)
VH: B5 VH
VL: B1 VL with F92Y
notes: Humanized 3A5
B11: Hu3A5 (V2) antibody (antibody, V domains shown)
VH: B5 VH
VL: B5 VL with F92Y
notes: Humanized 3A5
B12: Hu3A5 (V7) antibody (antibody, V domains shown)
VH: B5 VH with E1Q, M37V, I48M, L70M
VL: B1 VL
notes: Humanized 3A5
B13: Hu3A5 (V8) antibody (antibody, V domains shown)
VH: B5 VH with E1Q, M37V, I48M, L70M
VL: B1 VL with F92Y
notes: Humanized 3A5
B14: Hu3A5 (V6) antibody (antibody, V domains shown)
VH: B5 VH with E1Q, M37V, I48M, L70M
VL: B5 VL with F92Y
notes: Humanized 3A5
B15: Hu3A5 (V13) antibody (antibody, V domains shown)
VH: B1 VH with E1Q, H35N, M37V, I48M, L70F
VL: B5 VL
notes: Humanized 3A5
B16: Hu3A5 (V10) antibody (antibody, V domains shown)
VH: B1 VH
VL: B5 VL with F92Y

This note sets out measurements from patent EP4365197A1 (Innobation Bio Co., Ltd., dated 2024).

Residue numbers refer to the chain shown, from its start.

Chain of CD47 on the CD47-overexpressing breast cancer cell line MCF-7 (UniProt Q08722) (Q08722 19-323 limits assumed): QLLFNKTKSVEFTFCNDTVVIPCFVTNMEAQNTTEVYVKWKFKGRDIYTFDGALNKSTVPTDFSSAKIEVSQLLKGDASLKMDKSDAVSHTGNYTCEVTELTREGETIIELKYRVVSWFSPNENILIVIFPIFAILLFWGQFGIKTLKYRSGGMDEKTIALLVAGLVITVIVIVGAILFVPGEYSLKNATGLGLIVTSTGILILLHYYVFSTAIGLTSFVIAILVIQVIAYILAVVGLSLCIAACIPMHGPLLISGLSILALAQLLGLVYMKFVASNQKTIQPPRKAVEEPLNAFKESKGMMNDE

In the first experiment the target is T1, CD47 on the CD47-overexpressing breast cancer cell line MCF-7 (UniProt Q08722 19-323, limits assumed).
T1 construct: whole, on cells; Endogenous CD47 on MCF-7 cells; The positive control used on these cells is an anti-human CD47 antibody; also called CD47 overexpressing tumor cells (MCF-7); MCF-7 cells expressing CD47
T1 sequence (Q08722 19-323 limits assumed): as above
The experiment in a line: flow cytometry on MCF-7 cells, 1 µg antibody.
Turning to B1, the binding result is “binds”.

B2: the binding result is “binds”.

On to B3, for which the binding result is given as “binds”.

B4: the binding result was “binds”.

Consider B5, for which the binding result is on record as “binds”.

On to B6, for which the binding result is recorded as “binds”.

Turning to B7, the binding result is “binds”.

In the case of B8, the binding result is recorded as “binds”.

Turning to B9, the binding result is on record as “binds”.

Take B10: the binding result is “binds”.

With B11, the binding result is on record as “binds”.

Consider B12, for which the binding result is listed as “binds”.

B13: the binding result is given as “binds”.

As for B14, the binding result is listed as “binds”.

For B15, the binding result was “binds”.

For the next experiment, the target named is CD47 protein (Acrobiosystems, cat#CD7-HA2E9) (UniProt Q08722). The experiment in a line: ELISA, CD47 protein coated 100 ng/well, 0.8 µg antibody per well. Background: An ELISA detects its analyte on a solid surface through an enzyme-linked reagent.
Chain of CD47 protein (Acrobiosystems, cat#CD7-HA2E9) (Q08722 19-139 limits assumed): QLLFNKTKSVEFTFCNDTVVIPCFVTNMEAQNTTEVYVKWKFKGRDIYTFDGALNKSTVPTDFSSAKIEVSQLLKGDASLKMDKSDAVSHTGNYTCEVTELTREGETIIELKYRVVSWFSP
In the case of B1, the OD450 measurements amounted to 2.81 OD450.

Consider B2, for which the OD450 measurements was found to be 2.85 OD450.

B3 registered an OD450 measurements of 0.106 OD450.

Take B4: the OD450 measurements was 0.111 OD450.

B5 returned an OD450 measurements of 2.58 OD450.

Take B16: the OD450 measurements is 2.81 OD450.

For the molecule B6, the OD450 measurements came to 2.54 OD450.

B7: the OD450 measurements worked out at 2.65 OD450.

Molecule B8 yielded an OD450 measurements of 0.147 OD450.

As to B9, the OD450 measurements was determined as 2.57 OD450.

In turn, B10 gave an OD450 measurements of 2.74 OD450.

As to B11, the OD450 measurements was 2.69 OD450.

The molecule B12 registered an OD450 measurements of 2.67 OD450.

Regarding B13, the OD450 measurements was 2.45 OD450.

In turn, B14 displayed an OD450 measurements of 2.62 OD450.

For the molecule B15, the OD450 measurements is 0.0966 OD450.

The next experiment addresses CD47 on the CD47-overexpressing breast cancer cell line MCF-7 (UniProt Q08722). The experiment in a line: flow cytometry on MCF-7 cells, secondary antibody alone (background control). A general note: Flow cytometry measures light scatter and fluorescence of single cells or particles in a stream.
For “PE-conjugated goat anti-mouse IgG antibody (Biolegend Inc., cat# 405307)”, the Mean (fluorescence) amounted to 80 and the Median (fluorescence) turned out to be 73.9.
